Patent US20130202598

Key:
[1] = system: PE-DTA-mutated cleavage site-defensin
[2] = system: PE-DTA-cleavage site-defensin (P6-P4' NS5A/B site of genotype 1b/1a)

recombinant MBP-scNS3 fusion
in vitro cleavage by NS3 (immunoblot with anti-PE antibodies) [1]: resistant to cleavage by NS3
in vitro cleavage by NS3 (immunoblot with anti-PE antibodies) [2]: complete cleavage of the chimeric toxin
